Key:
[1] = test system: C[C@@H]1OC(O)[C@@H](O)[C@H](O)[C@@H]1O; assay: purified protein; settings: NADP+ in excess, 50 mM Tris-HCl pH 7.5, 1 mM Mg2+, room temperature
[2] = test system: NC(=O)c1ccc[n+]([C@@H]2O[C@H](COP(=O)(O)OP(=O)(O)OC[C@H]3O[C@@H](n4cnc5c(N)ncnc54)[C@H](O)[C@@H]3O)[C@@H](O)[C@H]2O)c1; assay: purified protein; settings: L-fucose in excess, 50 mM Tris-HCl pH 7.5, 1 mM Mg2+, room temperature, varied: cofactor
[3] = test system: NC(=O)c1ccc[n+]([C@@H]2O[C@H](COP(=O)(O)OP(=O)(O)OC[C@H]3O[C@@H](n4cnc5c(N)ncnc54)[C@H](OP(=O)(O)O)[C@@H]3O)[C@@H](O)[C@H]2O)c1; assay: purified protein; settings: L-fucose in excess, 50 mM Tris-HCl pH 7.5, 1 mM Mg2+, room temperature, varied: cofactor
[4] = test system: OC1OC[C@@H](O)[C@@H](O)[C@@H]1O; assay: purified protein; settings: NADP+ in excess, 50 mM Tris-HCl pH 7.5, 1 mM Mg2+, room temperature
[5] = biological target: Campylobacter jejuni FucX (Cj0485), C-terminally six-histidine tagged (Campylobacter jejuni NCTC11168); assay: crystal structure; FucX pre-incubated with excess NADP+, space group P1, four monomers in the asymmetric unit; 23-26% PEG 4000, 0.08 M Tris pH 8.5, 0.15 M MgCl2, 20% glycerol; 2.15 Å
[6] = biological target: Campylobacter jejuni FucX (Cj0485), C-terminally six-histidine tagged (Campylobacter jejuni NCTC11168); assay: crystal structure; apo FucX, space group C222(1), two monomers in the asymmetric unit, tetramer generated by the crystallographic lattice; crystals grown at 18 °C in 3.4 M 1,6-hexanediol, 0.1 M Tris pH 8.5, 0.2 M MgCl2; 1.60 Å

Row | Substance | Km [1] [µM] | kcat [1] [s⁻¹] | Km [2] [µM] | kcat [2] [s⁻¹] | Km [3] [µM] | kcat [3] [s⁻¹] | Km [4] [µM] | kcat [4] [s⁻¹] | stoichiometry N [5] | stoichiometry N [6]
1 | FucX (Cj0485) (Campylobacter jejuni subsp. jejuni NCTC 11168 = ATCC 700819) | 233.8 ± 26.2 | 26.3 ± 0.7 | 6050 ± 1080 | 20.5 ± 2.1 | 9.9 ± 1.9 | 16.5 ± 0.7 | 672.2 ± 82.8 | 18.9 ± 0.8 | – | –
2 | Campylobacter jejuni FucX (Cj0485), C-terminally six-histidine tagged (enzyme) | – | – | – | – | – | – | – | – | 4 | 4

— PMC6946681, “The gastrointestinal pathogen Campylobacter jejuni metabolizes sugars with potential help from commensal Bacteroides vulgatus” (Communications Biology, 2020)
